Measurements taken from patent US20200079833A1 (AstraZeneca / MedImmune, published 2020).
Starred links: 1 amine or outer side, 2 acyl side, 3 side chain; linkers in the order of their positions; H or OH if unused. Non-standard residues stand in square brackets, D forms with d. Groups on a side chain read outwards from the residue. Primed or numbered codes have the meaning given here. No end group written: not given here. *: point of attachment. γGlu = O=C(O)[C@H](CCC(=O)[*:2])N[*:1]; αMeF = C[C@](N)(Cc1ccccc1)C(=O)O; αMeK = C[C@](N)(CCCCN)C(=O)O; Lauroyl = CCCCCCCCCCCC(=O)*; αMeS = C[C@](N)(CO)C(=O)O; PEG2′ = not defined here; Aib = CC(C)(N)C(=O)O

T1: glucose-dependent insulinotropic peptide (gastric inhibitory polypeptide) receptor (GIPR), primary cAMP assay … (human, UniProt P48546 22-466)
T1 sequence (looked up): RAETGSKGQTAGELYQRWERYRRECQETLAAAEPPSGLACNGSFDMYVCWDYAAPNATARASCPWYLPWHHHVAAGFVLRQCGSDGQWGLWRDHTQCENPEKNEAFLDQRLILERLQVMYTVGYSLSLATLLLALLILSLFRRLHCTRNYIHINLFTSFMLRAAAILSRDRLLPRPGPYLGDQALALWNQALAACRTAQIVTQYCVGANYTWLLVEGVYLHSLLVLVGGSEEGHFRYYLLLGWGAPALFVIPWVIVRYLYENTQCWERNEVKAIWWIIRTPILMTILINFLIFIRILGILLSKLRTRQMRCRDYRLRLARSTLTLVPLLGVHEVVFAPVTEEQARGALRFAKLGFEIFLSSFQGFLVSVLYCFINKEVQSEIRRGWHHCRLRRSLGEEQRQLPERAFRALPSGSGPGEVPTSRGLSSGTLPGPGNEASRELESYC

T2: glucose-dependent insulinotropic peptide (gastric inhibitory polypeptide) receptor (human, UniProt P48546 22-466)
T2 sequence (looked up): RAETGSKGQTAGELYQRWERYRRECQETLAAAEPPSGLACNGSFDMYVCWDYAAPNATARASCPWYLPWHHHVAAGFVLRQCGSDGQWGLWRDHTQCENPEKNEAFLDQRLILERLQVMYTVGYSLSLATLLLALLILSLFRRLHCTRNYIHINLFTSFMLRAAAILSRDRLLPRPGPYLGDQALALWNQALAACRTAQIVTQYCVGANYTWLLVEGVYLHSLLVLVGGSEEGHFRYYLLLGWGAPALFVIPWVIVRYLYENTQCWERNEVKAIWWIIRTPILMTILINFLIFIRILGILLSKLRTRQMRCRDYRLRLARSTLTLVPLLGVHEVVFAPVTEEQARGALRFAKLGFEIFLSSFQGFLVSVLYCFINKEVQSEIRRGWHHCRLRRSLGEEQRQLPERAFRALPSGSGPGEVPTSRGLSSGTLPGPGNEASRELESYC


What was measured:
Assay in all cases: cell-based or functional assay
[1] = biological target: GLP-1 receptor (GLP-1R), primary cAMP assay cell line (human, UniProt P43220 24-463)
[2] = biological target: glucagon receptor (GCGR), primary cAMP assay cell line (human, UniProt P47871 26-477)
Chain of glucagon receptor (GCGR), primary cAMP assay cell line (P47871 26-477): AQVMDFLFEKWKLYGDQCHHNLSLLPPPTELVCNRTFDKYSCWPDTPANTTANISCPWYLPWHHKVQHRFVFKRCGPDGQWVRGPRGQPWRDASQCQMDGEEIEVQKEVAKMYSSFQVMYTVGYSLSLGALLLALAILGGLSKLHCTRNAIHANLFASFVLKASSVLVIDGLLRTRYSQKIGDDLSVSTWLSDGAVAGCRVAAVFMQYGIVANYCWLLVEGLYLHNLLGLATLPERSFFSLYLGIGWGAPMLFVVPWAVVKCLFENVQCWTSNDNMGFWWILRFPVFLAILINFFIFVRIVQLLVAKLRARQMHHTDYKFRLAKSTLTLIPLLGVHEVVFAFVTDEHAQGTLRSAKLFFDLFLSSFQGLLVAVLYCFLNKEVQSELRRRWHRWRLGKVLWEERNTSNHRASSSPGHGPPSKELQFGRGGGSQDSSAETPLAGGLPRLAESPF

[3] = biological target: T1, glucose-dependent insulinotropic …
GLP-1 receptor = GLP-1 receptor (human, UniProt P43220 24-463)
glucagon receptor = glucagon receptor (human, UniProt P47871 26-477)
Chain of glucagon receptor (P47871 26-477): as above

[4] = biological target: T2, glucose-dependent insulinotropic …

cAMP Primary assay EC50, Mean pM GLP-1R [1] | cAMP Primary assay EC50, n1 [1] | cAMP Primary assay EC50, n2 [1] | cAMP Primary assay EC50, n1 [2] | cAMP Primary assay EC50, n2 [2] | cAMP Primary assay EC50, n1 [3] | cAMP Primary assay EC50, n2 [3] | Primary assay EC50 (cAMP), Mean pM GLP-1R (GLP-1 receptor) | Primary assay EC50 (cAMP), n1 (GLP-1 receptor) | Primary assay EC50 (cAMP), n2 (GLP-1 receptor) | Primary assay EC50 (cAMP), n1 (glucagon receptor) | Primary assay EC50 (cAMP), n2 (glucagon receptor) | Primary assay EC50 (cAMP), n1 [4] | Primary assay EC50 (cAMP), n2 [4] | Binder
97 pM | 0.0599 nM | 0.134 nM | 19.5 nM | 19.5 nM | 19.5 nM | 19.5 nM |  |  |  |  |  |  |  | H[Aib]EGS[αMeF]TSDK([PEG2′-PEG2′-γGlu-Lauroyl])SSYLEK([PEG2′-PEG2′-γGlu-Lauroyl])EAA[αMeK]EFIK([PEG2′-PEG2′-γGlu-Lauroyl])FVVEGG-NH2 [SEQ ID NO: 439]
 |  |  |  |  |  |  | 10100 pM | 11 nM | 9.4 nM | 100 nM | 100 nM | 100 nM | 100 nM | H[Aib]EGS[αMeF]T[αMeS]DVSS[αMeF]LEGEAA[αMeK]E[αMeF]IA[αMeF]VV[αMeK]GG-NH2 (N-terminus assumed; SMILES CC[C@H](C)[C@H](NC(=O)[C@](C)(Cc1ccccc1)NC(=O)[C@H](CCC(=O)O)NC(=O)[C@](C)(CCCCN)NC(=O)[C@H](C)NC(=O)[C@H](C)NC(=O)[C@H](CCC(=O)O)NC(=O)CNC(=O)[C@H](CCC(=O)O)NC(=O)[C@H](CC(C)C)NC(=O)[C@](C)(Cc1ccccc1)NC(=O)[C@H](CO)NC(=O)[C@H](CO)NC(=O)[C@@H](NC(=O)[C@H](CC(=O)O)NC(=O)[C@](C)(CO)NC(=O)[C@@H](NC(=O)[C@](C)(Cc1ccccc1)NC(=O)[C@H](CO)NC(=O)CNC(=O)[C@H](CCC(=O)O)NC(=O)C(C)(C)NC(=O)[C@@H](N)Cc1c[nH]cn1)[C@@H](C)O)C(C)C)C(=O)N[C@@H](C)C(=O)N[C@@](C)(Cc1ccccc1)C(=O)N[C@H](C(=O)N[C@H](C(=O)N[C@@](C)(CCCCN)C(=O)NCC(=O)NCC(N)=O)C(C)C)C(C)C) [SEQ ID NO 16]
92.4 pM | 0.0788 nM | 0.106 nM | 19.9 nM | 19.9 nM | 19.9 nM | 19.9 nM |  |  |  |  |  |  |  | H[Aib]EGS[αMeF]TSDV[αMeS]SK([PEG2′-PEG2′-γGlu-Lauroyl])LEGK([PEG2′-PEG2′-γGlu-Lauroyl])AA[αMeK]EFIK([PEG2′-PEG2′-γGlu-Lauroyl])FVVEGG-NH2 [SEQ ID NO: 448]
144 pM | 0.125 nM | 0.162 nM | 19.7 nM | 19.7 nM | 19.7 nM | 19.7 nM |  |  |  |  |  |  |  | H[Aib]EGS[αMeF]TSDVSK([PEG2′-PEG2′-γGlu-Lauroyl])YLEGK([PEG2′-PEG2′-γGlu-Lauroyl])AA[αMeK]EFIK([PEG2′-PEG2′-γGlu-Lauroyl])FVVEGG-NH2 [SEQ ID NO: 444]
260 pM | 0.242 nM | 0.277 nM | 19.5 nM | 19.5 nM | 19.5 nM | 19.5 nM |  |  |  |  |  |  |  | H[Aib]EGS[αMeF]TSDVSK([PEG2′-PEG2′-γGlu-Lauroyl])YLEGEK([PEG2′-PEG2′-γGlu-Lauroyl])A[αMeK]EFIK([PEG2′-PEG2′-γGlu-Lauroyl])FVVEGG-NH2 [SEQ ID NO: 445]
246 pM | 0.216 nM | 0.276 nM | 19.7 nM | 19.7 nM | 19.7 nM | 19.7 nM |  |  |  |  |  |  |  | H[Aib]EGS[αMeF]TSDV[αMeS]SK([PEG2′-PEG2′-γGlu-Lauroyl])LEGEK([PEG2′-PEG2′-γGlu-Lauroyl])A[αMeK]EFIK([PEG2′-PEG2′-γGlu-Lauroyl])FVVEGG-NH2 [SEQ ID NO: 449]
223 pM | 0.192 nM | 0.254 nM | 19.4 nM | 19.4 nM | 19.4 nM | 19.4 nM |  |  |  |  |  |  |  | H[Aib]EGS[αMeF]TSDVSK([PEG2′-PEG2′-γGlu-Lauroyl])YLEK([PEG2′-PEG2′-γGlu-Lauroyl])EAA[αMeK]EFIK([PEG2′-PEG2′-γGlu-Lauroyl])FVVEGG-NH2 [SEQ ID NO: 443]
107 pM | 0.0873 nM | 0.127 nM | 19.7 nM | 19.7 nM | 19.7 nM | 19.7 nM |  |  |  |  |  |  |  | H[Aib]EGS[αMeF]TSDVSK([PEG2′-PEG2′-γGlu-Lauroyl])YLEGEAA[αMeK]K([PEG2′-PEG2′-γGlu-Lauroyl])FIK([PEG2′-PEG2′-γGlu-Lauroyl])FVVEGG-NH2 [SEQ ID NO: 446]
130 pM | 0.0967 nM | 0.164 nM | 19.7 nM | 19.7 nM | 19.7 nM | 19.7 nM |  |  |  |  |  |  |  | H[Aib]EGS[αMeF]TSDK([PEG2′-PEG2′-γGlu-Lauroyl])SSYLEGK([PEG2′-PEG2′-γGlu-Lauroyl])AA[αMeK]EFIK([PEG2′-PEG2′-γGlu-Lauroyl])FVVEGG-NH2 [SEQ ID NO: 440]
150 pM | 0.123 nM | 0.176 nM | 19.7 nM | 19.7 nM | 19.7 nM | 19.7 nM |  |  |  |  |  |  |  | H[Aib]EGS[αMeF]TSDV[αMeS]SK([PEG2′-PEG2′-γGlu-Lauroyl])LEK([PEG2′-PEG2′-γGlu-Lauroyl])EAA[αMeK]EFIK([PEG2′-PEG2′-γGlu-Lauroyl])FVVEGG-NH2 [SEQ ID NO: 447]
82 pM | 0.0609 nM | 0.103 nM | 19.7 nM | 19.7 nM | 19.7 nM | 19.7 nM |  |  |  |  |  |  |  | H[Aib]EGS[αMeF]TSDK([PEG2′-PEG2′-γGlu-Lauroyl])SSYLEGEAA[αMeK]K([PEG2′-PEG2′-γGlu-Lauroyl])FIK([PEG2′-PEG2′-γGlu-Lauroyl])FVVEGG-NH2 [SEQ ID NO: 442]
176 pM | 0.11 nM | 0.241 nM | 19.5 nM | 19.5 nM | 19.5 nM | 19.5 nM |  |  |  |  |  |  |  | H[Aib]EGS[αMeF]TSDK([PEG2′-PEG2′-γGlu-Lauroyl])SSYLEGEK([PEG2′-PEG2′-γGlu-Lauroyl])A[αMeK]EFIK([PEG2′-PEG2′-γGlu-Lauroyl])FVVEGG-NH2 [SEQ ID NO: 441]
